This passage reports EC50 results from patent US20230193513A1 (published 2023).

The test concerns the target T1, flag-GLP1R-GFP expressed on CHO cells (UniProt P43220 24-463).
T1 chain: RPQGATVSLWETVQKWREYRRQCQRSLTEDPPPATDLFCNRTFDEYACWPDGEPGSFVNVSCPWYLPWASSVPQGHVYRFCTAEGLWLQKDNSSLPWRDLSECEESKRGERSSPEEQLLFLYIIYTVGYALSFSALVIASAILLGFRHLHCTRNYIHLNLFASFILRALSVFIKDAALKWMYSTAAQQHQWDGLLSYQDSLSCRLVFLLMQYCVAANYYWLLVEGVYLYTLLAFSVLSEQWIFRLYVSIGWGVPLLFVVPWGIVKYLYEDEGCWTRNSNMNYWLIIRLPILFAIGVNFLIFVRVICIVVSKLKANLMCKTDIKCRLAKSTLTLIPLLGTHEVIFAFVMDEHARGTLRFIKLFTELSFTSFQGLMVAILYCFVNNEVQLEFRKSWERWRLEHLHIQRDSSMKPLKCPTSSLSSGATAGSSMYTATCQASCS
The experiment in a line: FACS cell binding.

B1: GLP1R-242 (antibody)
heavy: QVQLVQSGAEVKKPGSSVKVSCKASGGTFSSYEISWVRQAPGQGLEWMGGIIPILGIANYAQKFQGRVTITADESTSTAYMELSSLRSEDTAVYYCAKHMSMQADTGTFTSDVSSYLEGQAAKEFIAWLVKGEFSSRADLVGDAFDVWGQGTLVTVSSASASTKGPSVFPLAPCSRSTSESTAALGCLVKDYFPEPVTVSWNSGALTSGVHTFPAVLQSSGLYSLSSVVTVPSSNFGTQTYTCNVDHKPSNTKVDKTVERKCCVECPPCPAPPVAGPSVFLFPPKPKDTLMISRTPEVTCVVVDVSHEDPEVQFNWYVDGVEVHNAKTKPREEQFNSTFRVVSVLTVVHQDWLNGKEYKCKVSNKGLPAPIEKTISKTKGQPREPQVYTLPPSREEMTKNQVSLTCLVKGFYPSDIAVEWESNGQPENNYKTTPPMLDSDGSFFLYSKLTVDKSRWQQGNVFSCSVMHEALHNHYTQKSLSLSPG
light: QSVLTQPPSVSAAPGQKVTISCSGSSSNIENNDVSWYQQLPGTAPKLLIYGNDQRPSGIPDRFSGSKSGTSATLGITGLQTGDEADYYCGTWDNTLSAGVFGGGTKLTVLGQPKAAPSVTLFPPSSEELQANKATLVCLISDFYPGAVTVAWKADSSPVKAGVETTTPSKQSNNKYAASSYLSLTPEQWKSHRSYSCQVTHEGSTVEKTVAPTECS
Usually EC50 stands for the midpoint of the concentration-response curve. Turning to B1, the EC50 was 27.7 nM.
